Holding throughout (details): both partners purified
The target of assay [1] is T1, PI3Kα-RBD (PIK3CA-RBD(157-289)) (human, UniProt P42336 157-289).
T1 construct: also called p110α-RBD; p110α RBD; source: E. coli, purified (IMAC, TEV cleavage, second IMAC, SEC); not shown: His6, N-terminal, cleaved; MBP, N-terminal, cleaved
The experiment in a line: ITC; GMPPNP-bound RAS (300–500 μM) in the syringe, PI3K isoform or PI3Kα-RBD (30–50 μM) in the cell; 25 °C; 20 mM HEPES pH 7.4, 150 mM NaCl, 5 mM MgCl2, 1 mM TCEP; one set of sites; duplicates. For orientation: Isothermal titration calorimetry measures the heat released or taken up as one component is titrated into another.

Assay [2] concerns the target T2, PI3Kα: p110α(2-1068) W1057A/I1058A/F1059A + p85(322-600) (human, UniProt P42336 2-1068; P27986 322-600, W1057A | I1058A | F1059A).
T2 construct: PIK3CA (p110α, catalytic subunit of PI3Kα), human, residues 2-1068; PIK3R1 (p85α regulatory subunit), human, residues 322-600 (nSH2-iSH2), untagged; also called PIK3CA(2-1068)W1057A/I1058A/F1059A + PIK3R1(322-600); p110α/p85; source: insect cells (baculovirus), co-expressed, purified (IMAC, TEV cleavage, second IMAC, anion exchange, SEC); not shown: His6, N-terminal, cleaved; MBP, N-terminal, …
Described as above.

Assay [3] concerns the target T3, PI3Kα: p110α(2-1068)W1057A/I1058A/F1059A + p85(322-600) (human, UniProt P42336 2-1068; P27986 322-600, W1057A | I1058A | F1059A).
T3 construct: human PIK3CA (p110α), residues 2-1068; human PIK3R1 (p85α), residues 322-600 (nSH2-iSH2), untagged; also called PI3Ka; PI3Kα (p110α + p85); source: insect cells (baculovirus), co-expressed, purified (IMAC, TEV cleavage, second IMAC, anion exchange, SEC); not shown: His6, N-terminal, cleaved; MBP, N-terminal, cleaved
The experiment in a line: ITC; RAS GTPase (GMPPNP-bound, 300–500 μM) in the syringe, PI3K isoform or PI3Kα-RBD (30–50 μM) in the cell; 25 °C; 20 mM HEPES pH 7.4, 150 mM NaCl, 5 mM MgCl2, 1 mM TCEP; one set of sites; two replicates.

The target of assay [4] is T4, PI3Kα-RBD, PIK3CA-RBD(157-289) (human, UniProt P42336 157-289).
T4 construct: also called PI3Ka-RBD; p110α-RBD; source: E. coli, purified (IMAC, TEV cleavage, second IMAC, SEC); not shown: His6, N-terminal, cleaved; MBP, N-terminal, cleaved
The assay is described as above.

B1: RRAS(22-192) (domain or fragment, human, UniProt P10301 22-192, looked up)
chain: GDPPPSETHKLVVVGGGGVGKSALTIQFIQSYFVSDYDPTIEDSYTKICSVDGIPARLDILDTAGQEEFGAMREQYMRAGHGFLLVFAINDRQSFNEVGKLFTQILRVKDRDDFPVVLVGNKADLESQRQVPRSEASAFGASHHVAYFEASAKLRLNVDEAFEQLVRAVRK
notes: source: E. coli, purified (IMAC, TEV cleavage, second IMAC, SEC); exchanged to GMPPNP; not shown: His6, N-terminal, cleaved; MBP, N-terminal, cleaved
As for B1, the binding result in assay [1] and in assay [2] was “binds” in each case.

B2: RRAS2(1-179)-Q36A, GMPPNP-bound (domain or fragment, human, UniProt P62070 1-179, looked up)
chain: MAAAGWRDGSGQEKYRLVVVGGGGVGKSALTIQFIASYFVTDYDPTIEDSYTKQCVIDDRAARLDILDTAGQEEFGAMREQYMRTGEGFLLVFSVTDRGSFEEIYKFQRQILRVKDRDEFPMILIGNKADLDHQRQVTQEEGQQLARQLKVTYMEASAKIRMNVDQAFHELVRVIRKFQ
notes: limits for the ITC are not separately stated; also called RRAS2-Q36A; source: E. coli, purified (IMAC, TEV cleavage, second IMAC, SEC); not shown: His6, N-terminal, cleaved; MBP, N-terminal, cleaved
As for B2, in assay [3], the Kd is 2.1 µM and the “stoichiometry N” value was determined as 0.95 sites. Also, in assay [4], the Kd was 4.9 µM and the “stoichiometry N” value is 1.12 sites.

B3: RRAS2(1-179)-Q36A (domain or fragment, human, UniProt P62070 1-179, looked up)
chain: B2 chain
notes: RRAS2 (TC21), human, residues 1-179; Limits 1-179 are stated for the crystals; also called RRAS2-Q36A; source: E. coli, purified (IMAC, TEV cleavage, second IMAC, SEC); exchanged to GMPPNP; not shown: His6, N-terminal, cleaved; MBP, N-terminal, cleaved
Regarding B3, the “fold increase in binding affinity against wild-type RRAS2” value in assay [1] was 2 fold.

Usually Kd stands for a measure of binding affinity in units of concentration. In general, stoichiometry N refers to the number of molecules, sites or subunits per partner or assembly.

The values above are taken from PMC11718114 (Nature Communications, 2025).
